Reference: a protein production outcome set (Wang et al. 2014)

Experiment: label from the status in PepcDB records

| Sequence | protein production |
| --- | --- |
| MEQQEEKRKIKAYQRKSKRSKSGSSSIPLDLVSEILLRLPEKSVARFRCVSKPWSSITTEPYFINLLTTRSPRLLLCFKANEKFFVSSIPQHRQTFETWNKSHSYSQLIDRYHMEFSEEMNYFPPTESVNGLICFQESARLIVWNPSTRQLLILPKPNGNSNDLTIFLGYDPVEGKHKVMCMEFSATYDTCRVLTLGSAQKLWRTVKTHNKHRSDYYDSGRCINGVVYHIAYVKDMCVWVLMSFDVRSEIFDMIELPSSDVHKDVLIDYNGRLACVGREIIEKNGIRLWILEKHNKWSSKDFLAPLVHIDKSLSTNKFLLKGFTHAGEIIYVESMFHKSAKIFFYDPVRNTSRRFELKGFTDDEFVLSNEHGYTLHVFPNHVESQISFT | failed |
| MEQSFFRELLHYQRPKDNPFRLVFAGLVMFSILFLGYINHQLLISSFGSLGIFTFLYYQPLPLKQLMTRLSVVGSYLFLGNLLGMLSTHIAWLIPIVVALVGFGGRFFFEVYDISKPGAFFGVMVTAMGASTSIPLAKIPFMSGCMLLGIGFSILFALVLHFTEKEISVPLAKRSLRERIYQHPEAPLDSIYYSFVLFFAVYISESLHLQNPYWLVVSCASILQGDNLRAIKQRNIQRIFGTTIGLVISAFLLNLALTTFESIVVITILFVTVEYFIRRNYGLAQFFTTPMALMLSLLVRQQYVITLIQFRFLGIVLGSLLGLSSSVAIHRCSNVL | failed |
| MEQTTIDGIALTLAGPVQLPLKWVGQDELLQQLLAAWMVIDDRDIPFSPRLIGKPGVGKTTLAYAAARRLGRPVYLFQATMDTRPEDLIITPVIGPDGKIQYAASSLVSAMVKGGVLILDEGNRMSEKAWASLAPLLDDRRYVESIITGLRVPAHRDFRIVVTMNEDASTFEVPEYIHSRLQPQIFIDFPEADEELMILKENLPFAPTRILKYVVDFLQRAHAADELYSVRDGINIARYALKMMAATERDAAELLPLAVERVLGDEALRYLALEHHHHHH | failed |
| MERELGPWRLTFRVRGWLSDEVFGEISRYARYLGRDRGYGLFRIDPERLRGNGLTLWDAIASLEDLGVAVEEDLEALKRAAEEALRVVLELRGGWVYISSRVMLKPILEEEGLSLPYDREARAYRAPPIMYPRLREAFERRGLKVEDRVFPPSSRSLPRPVRFTGELRDYQEEALEAWRKAGGRGVIVLPTGAGKTVVAIAAVAWAGVWSLIVVYTRDHVRQWIDAFRRFTDAHSLVGAYYGEEKRLAPITVTTYQTAYRHIDRLAPLFPFLVFDEAHHIPADKFKRIASASPAPYRMGLSATIEREDGRHEEVYSLVGGVVYSSSPGELTRKGYLAPFVIRRVKVELEEEEKRLYEDLKRKYRILARGRSFEKILEDARRGDPTAIEAIRVNTRMKEIVQLSESKIRAVEKLVREELSRGSKVIVFTQYRRQAEEIARRTGALLLHGGLERRVREATLAKFRALKAGALVVTTVGDEGLDIPDANVGILVSGTGSRRQFIQRLGRLLRPGEGKRAVLYEVIARGTGEELQSRRRRGRG | failed |
| MERGRSDMEMINNMANCLILLSKAHQNDTKSRVFACKTCNKEFPSFQALGGHRASHRRSAALEGHAPPSPKRVKPVKHECPICGAEFAVGQALGGHMRKHRGGSGGGGGRSLAPATAPVTMKKSGGGNGKRVLCLDLNLTPLENEDLKLELGRFIF | failed |
| MERIRWLYGFLACILIAILLAPLQIMAQGEFRTSDQPLVYYIPVEQEVERGLEAFLQRSLDSAVEEGADHIVLEINTPGGRVDAAGNMARALRETDIPITAYVIDQALSAGAYIALNADEIVMAPGSTMGSAAVIDSAGNAADEKAQSYWLAEMRNAAEYNDRDPKYALAMADRSIEIPELDISNEELLTLTASQALEVNYAEAIASNRAELLEHLQIDNAFEQEMEVSFAEKLARFVTNPLIIPILLSIGSLGLVLELYSPGFGVPGIMGISALLLFFFGHLIAGFAGYEAMILFIAGFLLILIEVFMPGFGLFGILGIAGMIGGMLLASFSTAWMLVSLGISAVVTTVVAIITFRYFGSRGPWKKMILTESTSSEKGYITNETRQELVGLIGQSLTPLRPSGSGLFGEERLDVVSEGGYIEQGRKIKVVSTSGSRIVVRETDELEHHHHHH | failed |
| MERKINRREKEKEYEGKHNSLEDTDQGKNCKSTLMTLNVGGYLYITQKQTLTKYPDTFLEGIVNGKILCPFDADGHYFIDRDGLLFRHVLNFLRNGELLLPEGFRENQLLAQEAEFFQLKGLAEEVKSRWEKEQLTPRETTFLEITDNHDRSQGLRIFCNAPDFISKIKSRIVLVSKSRLDGFPEEFSISSNIIRFKYFIKSENGTRLVLKEDNTFVCTLETLKFEAIMMALKCGFRLLTSLDCSKGSIVHSDALHFIK | not failed |
| MERKISDEECPVRKSMQIFAGKWTLLIIFQINRRIIRYGELKRAIPGISEKMLIDELKFLCGKGLIKKKQYPEVPPRVEYSLTPLGEKVLPIIDEIAKFGMENL | not failed |
| MERKRYSKRYCKYTEAKISFIDYKDLDMLKHTLSERYKIMPRRLTGNSKKWQERVEVAIKRARHMALIPYIVDRKKVVDSPFKQH | failed |
| MESAATAVVPPAAAATTATATDDNLQSSDSSSPADAVNRLIHAFSQRQQHLLDKTVPHVLYRWIACLCVVLIYIVRVYFVEGFYIITYAIGIYLLNLIIAFLSPQEDPEASLTSGGSLPTRRSDEYRPFVRRLPEFKFWLSIIRAFIIGFMMTFFEVFDVPVFWPILLFYWVMLFFLTMRKQIQHMIKYRYVPFSFGKKVCVSFSFLPSQN | failed |
| MESGIFGEGGSLPPLPVLLRGLQDLGLLGKLDIARRATLTGISLCFSVFLQHIGIMWIQVRTMDGKETHTVNSLSRLTKVQELRKKIEELFHVEPQLQRLFYRGKQMEDGHTLFDYDVRLNDTIQLLVRQSLALPLSTKERDSELSDSDSGYGVGHSESDKSSTHGEGTADGDDKTVWEDTDLGLYKVNEYVDVRDNIFGAWFEAQVVQVQKKALSEEEPCSSSAIMAPEDDIMYHIKYDDYPEHGVDIVKAKNVRARARTVIPWEDLEVGQVVMANYNVDYPRKRGFWYDVEICRKRQTRTARELYGNVMLLNDSQLNNCRIIFVDEVLKIELPNERSPLIGSPSRRKSGPSCQYCKDDENKPCRKCACHICGGREAPEKQVLCDECDMAFHLYCLQPPLTCVPPEPEWYCPSCRTDSSEVVQAGEKLKKSKKKAKMASATSSSRRDWGKGMACVGRTTECTIVPANHFGPIPGVPVGTMWRFRVQVSESGVHRPHVAGIHGRSNDGAYSLVLAGGYEDDVDNGNFFTYTGSGGRDLSGNKRTAGQSSDQKLTNNNRALALNCHSPINEKGAEAEDWRQGKPVRVVRNMKGGKHSKYAPAEGNRYDGIYKVVKYWPEKGKSGFIVWRYLLRRDDTEPEPWTREGKDRTRQLGLTMQYPEGYLEALANKEKNRKRPAKALEQGPSSSKIGKSKRKSTGPATTSPRVSKKSKLEPYTLPLQQANLIKEDKGNAKLWDDVLSSLQDGPYQIFLSKVKEAFQCICCQELVFRPVTTVCQHNVCKDCLDRSFRAQVFSCPACRYDLDHSSPTRVNQPLQTILNQLFPGYGSGR | failed |
| MESGNVVNTQPELSGIIDGSKSYMYEQLWKLCAGPLCDIPKLGEKVYYFPQGHIELVEASTREELNELQPICDFPSKLQCRVIAIQLKVENNSDETYAEITLMPDTTQVVIPTQNQNQFRPLVNSFTKVLTASDTSVHGGFSVPKKHAIECLPPLDMSQPLPTQEILAIDLHGNQWRFRHIYRGTAQRHLLTIGWNAFTTSKKLVEGDVIVFVRGETGELRVGIRRAGHQQGNIPSSIVSIESMRHGIIASAKHAFDNQCMFIVVYKPRSSQFIVSYDKFLDVVNNKFNVGSRFTMRFEGDDFSERRSFGTIIGVSDFSPHWKCSEWRSLEVQWDEFASFPRPNQVSPWDIEHLTPWSNVSRSSFLKNKRSREVNEIGSSSSHLLPPTLTQGQEIGQQSMATPMNISLRYRDITEDAMTPSRLLMSYPVQPMAKLNYNNVVTPIEENITTNAVASFRLFGVSLATPSVIKDPVEQIGLEISRLTQEKKFGQSQILRSPTEIQSKQFSSTRTCTKVQMQGVTIGRAVDLSVLNGYDQLILELEKLFDLKGQLQARNQWEIAFTNNEEDKMLVGEDPWPEFCNMVKKIFIYSKEEVKNLKSRKSLSS | failed |
| MESLPVLGVFFMVKTANVAVMPLFPRSQYRIIGQIGQGQFGRVYCAIHRTTGKMYALKDLEHRVFPTNKFLRELSYLLTLRHPNIVACHGLEYHPGGRYLVMDYCEGGTLRDIIDGDGDLCLAGKIDLLRQILLGLAQAHQHDIVHCDLKPENILLIPRAEGWQVKVSDFGIARLTAKTGNPNFSKGYTGSPAYMAPERFYGKFSVASDIYAVGILLYELIVGDRPFSGFPKALQAAHLNVRLTLPPEFPPLLAPIVQRALEKLPQRRFPNATAMASDLATVQKQILEQDPPRGNGYLYHHLAPAPLAFTATVKHSTPLLFPISHLTGAGLWLYLGNGAELYLWEYGDGNVEHHPLPRWALGLPGTIANLEVNQDQISLLIQGGEPGEWQFYQWRETLLGALSLPKPRINLRAERLLANLSPGGKTLAVVVGDRDSEKGHFQLWRTDHSLPVAAAVVIRWPDQLLTLDQNHGLLVQSQSTASYCHTIFFLFNRRGSLFPAFRLSFLVFQLVVNRYSRNHLFGLADNAPYTGILIRLQPLKVNRIALTIQPQFIEPFPWGYLLADRHGEVALLDYEGFLFGNFSLGETITAIAPMGRYLCLFATWQGNGGTLRLLDLGPQVENIIRQRQEKR | failed |
| MESPGGSAPLLGLELCAAARDSAAMAGPGAPCDPCAPAAVWKRHIVRQLRHRDRTQKALFLELVPAYNHLLEKAELLAKFSEKLKSEPKDAISTRHEDWREEVSGTGPDQVSSPASLRVKWQQEKKGLQLVCGEMAYQVVKKSAALDTLQSQLEERQDRLEALQACVVQLQEARAQQSRQLEERQAENAAQREAYETLLQQAVHQEAALRRLQEEARDLLEQLVQRKARAAAERNLRNERRERANQALVSQELKKAAKRTVSISEIPNTLEDGTKEETVALAPAALPEFSESETCEKWKRPFRSASATSLTLSRCVDVVKGLLDFKKRRGHSVGGAPEQRYQSIPVCVSAQIPSQAQDVLDAHLSEVNAVCFGPNSSLLATGGADRLIHLWNVVGGRLEANQTLEGAGGSITSVDFDPSGSQVLAATYNQAAQLWKVGETQSKETLSGHKDKVTAAKFKLTRHQAVTGSRDRTVKEWDLGRAYCSRTINVLSYCNDVVCGDHIIISGHNDQKIRFWDSRGPHCIQVIPVQGRVTSLHLSYDQLHLLSCSRDNTLKVIDLRISNIRQVFRADGFKCSSDWTKAVFSPDRSYALAGSSNGDLYIWDVNTGKLETSLQGPHCTAVNAVAWCFSGNHVVSVDQGRKVVLWH | failed |
| MESSAINIAIVVVYLLAMLAFGWWGKSRTKNNSDFLVAGRRLGPFLYTGTMAAVVLGGASTVGGVGLGYKFGISGMWLVVAIGSGVLLLSLLFAGTIQKLKIYTVSQMLTLRYGSTATQTSGIVMLAYTLMLCATSTGAYATIFVVLFGWERWLAIAIGGAIVLVYSTIGGMWSITLADQVQFVIKTVGIFFLMLPFALNAAGGLDGIRARVDESFFDIGGIGLQTIITYFVVYTLGLLIGQDIWQRVFTAKTPTVARWGGATAGVYCILYGFAGALIGMAASVALSGVEIAAKDDVYAEVATRLLPIGIGGLVLAAAVAAMMSTASGALIAAATVARADVMPFVASWFGKKVDTSDSDNPEHDVKANRYWVLGLGIVAIIIAISTKDVVAALTIAYDILVGGLLVAIIGGLVWKRGTGIAAAWSMAAGSVITLGTMIILEINAEVPLDGIYANEPIYFGLIASAVVYVVVSLLSKPTDPAVMKAWTDRVAGTRVAEEELTTPAS | failed |
| MESTKSYDIPILRNVSRSFSVHYRDYLQRCGIFVPKEGNSSGPDAYVVFHNGQTRYVVGFSFKFYHKSEFSKRNIEEEAKKFFKGVVSVLNDESFSSVQLRFQFVMVVCTSYGRSVVFSSEEQNIVEDASYLVTEHSSGSTLNESSRSCLQLVIVSQRNLEMYLGRDNVETLRKIGEASREEFSKDFSVWCETVFESMSNEYVSPLEQSNVTLRVARNIRPRTNEENRMQIEELQTAMKVERSVAASSSLSSSFDWNTFLREYCGLSEEDVAYCLPKVEDIDMDELPAVTKEILRDLGIDKPALRLKIRSSIRSYLANER | not failed |
